In US20120316071A1 (published 2012):

Experiments:
[1] = target: T1, Recombinant Human DLL4 (delta-like protein 4) (human, UniProt Q9NR61 27-524); assay: ELISA, DLL4-coated plate, 100 nM Fab
T1 construct: Bought recombinant human DLL4 (R&D Systems Cat#1506-D4/CF); also called rHuman DLL4

[2] = target: T1, Recombinant Human DLL4 (delta-like …); assay: ECL (MSD) binding assay, immobilised DLL4, 10 nM Fab;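 further: fab binding read as electrochemiluminescence via a TAG-labelled detection antibody, 1 h incubations at 20 °C, antigen signal compared with each well's blank, ratio of at least 4 scored as binder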

Binder | ELISA Signal [100 nM Fab] [1] | ECL Signal [10 nM Fab] [2]
Fab VH5-51_IGHD5-18*01>3_IGHJ4*01 G100K/G104T & V3-4_IGLJ1*01 M94P (Fab, V domains shown, Fab; expressed with CH1 (His and Flag tags) and lambda CL from the expression plasmids; also called H:KT & M94P) VH: EVQLVQSGAEVKKPGESLKISCKGSGYSFTSYWIGWVRQMPGKGLEWMGIIYPGDSDTRYSPSFQGQVTISADKSISTAYLQWSSLKASDTAMYYCARRKYSYTYDYFDYWGQGTLVTVSS VL: QTVVTQEPSFSVSPGGTVTLTCGLSSGSVSTSYYPSWYQQTPGQAPRTLIYSTNTRSSGVPDRFSGSILGNKAALTITGAQADDESDYYCVLYPGSGISYVFGTGTKVTVL | 0.01 | 39900
Fab VH5-51_IGHD5-18*01>3_IGHJ4*01 G100K/G104T & V3-4_IGLJ1*01 V91W (Fab, V domains shown, Fab; expressed with CH1 (His and Flag tags) and lambda CL from the expression plasmids; also called H:KT & V91W) VH: EVQLVQSGAEVKKPGESLKISCKGSGYSFTSYWIGWVRQMPGKGLEWMGIIYPGDSDTRYSPSFQGQVTISADKSISTAYLQWSSLKASDTAMYYCARRKYSYTYDYFDYWGQGTLVTVSS VL: QTVVTQEPSFSVSPGGTVTLTCGLSSGSVSTSYYPSWYQQTPGQAPRTLIYSTNTRSSGVPDRFSGSILGNKAALTITGAQADDESDYYCWLYMGSGISYVFGTGTKVTVL | 0 | 12500
Fab VH5-51_IGHD5-18*01>3_IGHJ4*01 G100K/G104T & V3-4_IGLJ1*01 M94V (Fab, V domains shown, Fab; expressed with CH1 (His and Flag tags) and lambda CL from the expression plasmids; also called H:KT & M94V) VH: EVQLVQSGAEVKKPGESLKISCKGSGYSFTSYWIGWVRQMPGKGLEWMGIIYPGDSDTRYSPSFQGQVTISADKSISTAYLQWSSLKASDTAMYYCARRKYSYTYDYFDYWGQGTLVTVSS VL: QTVVTQEPSFSVSPGGTVTLTCGLSSGSVSTSYYPSWYQQTPGQAPRTLIYSTNTRSSGVPDRFSGSILGNKAALTITGAQADDESDYYCVLYVGSGISYVFGTGTKVTVL | 0.02 | 47300
Fab VH5-51_IGHD5-18*01>3_IGHJ4*01 G100K/G104T & V3-4_IGLJ1*01 V91G (Fab, V domains shown, Fab; expressed with CH1 (His and Flag tags) and lambda CL from the expression plasmids; also called H:KT & V91G) VH: EVQLVQSGAEVKKPGESLKISCKGSGYSFTSYWIGWVRQMPGKGLEWMGIIYPGDSDTRYSPSFQGQVTISADKSISTAYLQWSSLKASDTAMYYCARRKYSYTYDYFDYWGQGTLVTVSS VL: QTVVTQEPSFSVSPGGTVTLTCGLSSGSVSTSYYPSWYQQTPGQAPRTLIYSTNTRSSGVPDRFSGSILGNKAALTITGAQADDESDYYCGLYMGSGISYVFGTGTKVTVL | 0.01 | 45300
Fab VH5-51_IGHD5-18*01>3_IGHJ4*01 G100K/G104T & V3-4_IGLJ1*01 V91E (Fab, V domains shown, Fab; expressed with CH1 (His and Flag tags) and lambda CL from the expression plasmids; also called H:KT & V91E) VH: EVQLVQSGAEVKKPGESLKISCKGSGYSFTSYWIGWVRQMPGKGLEWMGIIYPGDSDTRYSPSFQGQVTISADKSISTAYLQWSSLKASDTAMYYCARRKYSYTYDYFDYWGQGTLVTVSS VL: QTVVTQEPSFSVSPGGTVTLTCGLSSGSVSTSYYPSWYQQTPGQAPRTLIYSTNTRSSGVPDRFSGSILGNKAALTITGAQADDESDYYCELYMGSGISYVFGTGTKVTVL | 0 | 22500
Fab VH5-51_IGHD5-18*01>3_IGHJ4*01 G100K/G104T & V3-4_IGLJ1*01 V91C (Fab, V domains shown, Fab; expressed with CH1 (His and Flag tags) and lambda CL from the expression plasmids; also called H:KT & V91C) VH: EVQLVQSGAEVKKPGESLKISCKGSGYSFTSYWIGWVRQMPGKGLEWMGIIYPGDSDTRYSPSFQGQVTISADKSISTAYLQWSSLKASDTAMYYCARRKYSYTYDYFDYWGQGTLVTVSS VL: QTVVTQEPSFSVSPGGTVTLTCGLSSGSVSTSYYPSWYQQTPGQAPRTLIYSTNTRSSGVPDRFSGSILGNKAALTITGAQADDESDYYCCLYMGSGISYVFGTGTKVTVL | 0.02 | 38300
Fab VH5-51_IGHD5-18*01>3_IGHJ4*01 G100K/G104T & V3-4_IGLJ1*01 V91H (Fab, V domains shown, Fab; expressed with CH1 (His and Flag tags) and lambda CL from the expression plasmids; also called H:KT & V91H) VH: EVQLVQSGAEVKKPGESLKISCKGSGYSFTSYWIGWVRQMPGKGLEWMGIIYPGDSDTRYSPSFQGQVTISADKSISTAYLQWSSLKASDTAMYYCARRKYSYTYDYFDYWGQGTLVTVSS VL: QTVVTQEPSFSVSPGGTVTLTCGLSSGSVSTSYYPSWYQQTPGQAPRTLIYSTNTRSSGVPDRFSGSILGNKAALTITGAQADDESDYYCHLYMGSGISYVFGTGTKVTVL | 0.01 | 27100
Fab VH5-51_IGHD5-18*01>3_IGHJ4*01 G100K/G104T & V3-4_IGLJ1*01 V91I (Fab, V domains shown, Fab; expressed with CH1 (His and Flag tags) and lambda CL from the expression plasmids; also called H:KT & V91I) VH: EVQLVQSGAEVKKPGESLKISCKGSGYSFTSYWIGWVRQMPGKGLEWMGIIYPGDSDTRYSPSFQGQVTISADKSISTAYLQWSSLKASDTAMYYCARRKYSYTYDYFDYWGQGTLVTVSS VL: QTVVTQEPSFSVSPGGTVTLTCGLSSGSVSTSYYPSWYQQTPGQAPRTLIYSTNTRSSGVPDRFSGSILGNKAALTITGAQADDESDYYCILYMGSGISYVFGTGTKVTVL | 0.01 | 51200
Fab VH5-51_IGHD5-18*01>3_IGHJ4*01 G100K/G104T & V3-4_IGLJ1*01 S96W (Fab, V domains shown, Fab; expressed with CH1 (His and Flag tags) and lambda CL from the expression plasmids; also called H:KT & S96W) VH: EVQLVQSGAEVKKPGESLKISCKGSGYSFTSYWIGWVRQMPGKGLEWMGIIYPGDSDTRYSPSFQGQVTISADKSISTAYLQWSSLKASDTAMYYCARRKYSYTYDYFDYWGQGTLVTVSS VL: QTVVTQEPSFSVSPGGTVTLTCGLSSGSVSTSYYPSWYQQTPGQAPRTLIYSTNTRSSGVPDRFSGSILGNKAALTITGAQADDESDYYCVLYMGWGISYVFGTGTKVTVL | 0.02 | 52300
Fab VH5-51_IGHD5-18*01>3_IGHJ4*01 G100K/G104T & V3-4_IGLJ1*01 M94R (Fab, V domains shown, Fab; expressed with CH1 (His and Flag tags) and lambda CL from the expression plasmids; also called H:KT & M94R) VH: EVQLVQSGAEVKKPGESLKISCKGSGYSFTSYWIGWVRQMPGKGLEWMGIIYPGDSDTRYSPSFQGQVTISADKSISTAYLQWSSLKASDTAMYYCARRKYSYTYDYFDYWGQGTLVTVSS VL: QTVVTQEPSFSVSPGGTVTLTCGLSSGSVSTSYYPSWYQQTPGQAPRTLIYSTNTRSSGVPDRFSGSILGNKAALTITGAQADDESDYYCVLYRGSGISYVFGTGTKVTVL | 0.01 | 77800
Fab VH5-51_IGHD5-18*01>3_IGHJ4*01 G100K/G104T & V3-4_IGLJ1*01 V91S (Fab, V domains shown, Fab; expressed with CH1 (His and Flag tags) and lambda CL from the expression plasmids; also called H:KT & V91S) VH: EVQLVQSGAEVKKPGESLKISCKGSGYSFTSYWIGWVRQMPGKGLEWMGIIYPGDSDTRYSPSFQGQVTISADKSISTAYLQWSSLKASDTAMYYCARRKYSYTYDYFDYWGQGTLVTVSS VL: QTVVTQEPSFSVSPGGTVTLTCGLSSGSVSTSYYPSWYQQTPGQAPRTLIYSTNTRSSGVPDRFSGSILGNKAALTITGAQADDESDYYCSLYMGSGISYVFGTGTKVTVL | 0.01 | 32100
Fab VH5-51_IGHD5-18*01>3_IGHJ4*01 G100K/G104T & V3-4_IGLJ1*01 M94T (Fab, V domains shown, Fab; expressed with CH1 (His and Flag tags) and lambda CL from the expression plasmids; also called H:KT & M94T) VH: EVQLVQSGAEVKKPGESLKISCKGSGYSFTSYWIGWVRQMPGKGLEWMGIIYPGDSDTRYSPSFQGQVTISADKSISTAYLQWSSLKASDTAMYYCARRKYSYTYDYFDYWGQGTLVTVSS VL: QTVVTQEPSFSVSPGGTVTLTCGLSSGSVSTSYYPSWYQQTPGQAPRTLIYSTNTRSSGVPDRFSGSILGNKAALTITGAQADDESDYYCVLYTGSGISYVFGTGTKVTVL | 0.02 | 43000
Fab VH5-51_IGHD5-18*01>3_IGHJ4*01 G100K/G104T & V3-4_IGLJ1*01 V91N (Fab, V domains shown, Fab; expressed with CH1 (His and Flag tags) and lambda CL from the expression plasmids; also called H:KT & V91N) VH: EVQLVQSGAEVKKPGESLKISCKGSGYSFTSYWIGWVRQMPGKGLEWMGIIYPGDSDTRYSPSFQGQVTISADKSISTAYLQWSSLKASDTAMYYCARRKYSYTYDYFDYWGQGTLVTVSS VL: QTVVTQEPSFSVSPGGTVTLTCGLSSGSVSTSYYPSWYQQTPGQAPRTLIYSTNTRSSGVPDRFSGSILGNKAALTITGAQADDESDYYCNLYMGSGISYVFGTGTKVTVL | 0 | 46700
Fab VH5-51_IGHD5-18*01>3_IGHJ4*01 G100K/G104T & V3-4_IGLJ1*01 V91R (Fab, V domains shown, Fab; expressed with CH1 (His and Flag tags) and lambda CL from the expression plasmids; also called H:KT & V91R) VH: EVQLVQSGAEVKKPGESLKISCKGSGYSFTSYWIGWVRQMPGKGLEWMGIIYPGDSDTRYSPSFQGQVTISADKSISTAYLQWSSLKASDTAMYYCARRKYSYTYDYFDYWGQGTLVTVSS VL: QTVVTQEPSFSVSPGGTVTLTCGLSSGSVSTSYYPSWYQQTPGQAPRTLIYSTNTRSSGVPDRFSGSILGNKAALTITGAQADDESDYYCRLYMGSGISYVFGTGTKVTVL | 0 | 13400
Fab VH5-51_IGHD5-18*01>3_IGHJ4*01 G100K/G104T & V3-4_IGLJ1*01 V91T (Fab, V domains shown, Fab; expressed with CH1 (His and Flag tags) and lambda CL from the expression plasmids; also called H:KT & V91T) VH: EVQLVQSGAEVKKPGESLKISCKGSGYSFTSYWIGWVRQMPGKGLEWMGIIYPGDSDTRYSPSFQGQVTISADKSISTAYLQWSSLKASDTAMYYCARRKYSYTYDYFDYWGQGTLVTVSS VL: QTVVTQEPSFSVSPGGTVTLTCGLSSGSVSTSYYPSWYQQTPGQAPRTLIYSTNTRSSGVPDRFSGSILGNKAALTITGAQADDESDYYCTLYMGSGISYVFGTGTKVTVL | 0.01 | 32700
Fab VH5-51_IGHD5-18*01>3_IGHJ4*01 G100K/G104T & V3-4_IGLJ1*01 S96G (Fab, V domains shown, Fab; expressed with CH1 (His and Flag tags) and lambda CL from the expression plasmids; also called H:KT & S96G) VH: EVQLVQSGAEVKKPGESLKISCKGSGYSFTSYWIGWVRQMPGKGLEWMGIIYPGDSDTRYSPSFQGQVTISADKSISTAYLQWSSLKASDTAMYYCARRKYSYTYDYFDYWGQGTLVTVSS VL: QTVVTQEPSFSVSPGGTVTLTCGLSSGSVSTSYYPSWYQQTPGQAPRTLIYSTNTRSSGVPDRFSGSILGNKAALTITGAQADDESDYYCVLYMGGGISYVFGTGTKVTVL | 0.01 | 40400
Fab VH5-51_IGHD5-18*01>3_IGHJ4*01 G100K/G104T & V3-4_IGLJ1*01 V91L (Fab, V domains shown, Fab; expressed with CH1 (His and Flag tags) and lambda CL from the expression plasmids; also called H:KT & V91L) VH: EVQLVQSGAEVKKPGESLKISCKGSGYSFTSYWIGWVRQMPGKGLEWMGIIYPGDSDTRYSPSFQGQVTISADKSISTAYLQWSSLKASDTAMYYCARRKYSYTYDYFDYWGQGTLVTVSS VL: QTVVTQEPSFSVSPGGTVTLTCGLSSGSVSTSYYPSWYQQTPGQAPRTLIYSTNTRSSGVPDRFSGSILGNKAALTITGAQADDESDYYCLLYMGSGISYVFGTGTKVTVL | 0.02 | 41600
Fab VH5-51_IGHD5-18*01>3_IGHJ4*01 G100K/G104T & V3-4_IGLJ1*01 M94S (Fab, V domains shown, Fab; expressed with CH1 (His and Flag tags) and lambda CL from the expression plasmids; also called H:KT & M94S) VH: EVQLVQSGAEVKKPGESLKISCKGSGYSFTSYWIGWVRQMPGKGLEWMGIIYPGDSDTRYSPSFQGQVTISADKSISTAYLQWSSLKASDTAMYYCARRKYSYTYDYFDYWGQGTLVTVSS VL: QTVVTQEPSFSVSPGGTVTLTCGLSSGSVSTSYYPSWYQQTPGQAPRTLIYSTNTRSSGVPDRFSGSILGNKAALTITGAQADDESDYYCVLYSGSGISYVFGTGTKVTVL | 0.02 | 49600
